Data published in paper PMC2613882, “The FF domains of yeast U1 snRNP protein Prp40 mediate interactions with Luc7 and Snu71” (BMC Biochemistry, 2008).

T1: GST-Prp40FF1 (amino acids 129-201) (Saccharomyces cerevisiae, UniProt P33203 129-201)
T1 construct: Prp40, S. cerevisiae, residues 129-201 (Prp40FF1); also called GST-FF1; source: E. coli BL21, purified (glutathione Sepharose 4B)
T1 sequence (looked up): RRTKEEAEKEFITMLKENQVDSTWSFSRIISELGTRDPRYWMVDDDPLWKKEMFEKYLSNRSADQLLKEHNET

T2: GST-Prp40FF1-2 (amino acids 129-264) (Saccharomyces cerevisiae, UniProt P33203 129-264)
T2 construct: Prp40, S. cerevisiae, residues 129-264 (Prp40FF1-2); also called GST-FF1-2; source: E. coli BL21, purified (glutathione Sepharose 4B)
T2 sequence (looked up): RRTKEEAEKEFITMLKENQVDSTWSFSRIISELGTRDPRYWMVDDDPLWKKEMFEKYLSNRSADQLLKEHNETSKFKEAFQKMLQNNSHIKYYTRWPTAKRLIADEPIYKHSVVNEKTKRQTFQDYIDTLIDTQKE


Legend:
[1] = target: T1, GST-Prp40FF1 (amino acids 129-201); assay: peptide or protein array; SPOT 15-mer peptides (3 aa shifts; alanine scan and substitution analysis of A24) on a β-alanine membrane, probed overnight at 4°C with 10 μg/ml purified GST fusion protein, detected with anti-GST antibody; conditions: both partners purified
[2] = target: T2, GST-Prp40FF1-2 (amino acids 129-264); assay: as above; conditions: both partners purified

binding result [1] | binding result [2] | Binder
binds | binds | DRRLADHFLGKIHLG (also called A24 peptide) [Luc7 peptide A24, D214RRLADHFLGKIHLG228]
– | binds | HLANDVHYDHHRSFK (Snu71, S. cerevisiae, residues 418-432) [Snu71 peptide B1, H418LANDVHYDHHRSFK432]
